Literature values as cited in paper PMC3575173.

Molecular target: TAMRA-TRTK-12 (UniProt P52907)

Q: Which Kd does the source give for S100B (from UniProt P04271) here?
A: Its Kd is 1190 nM.
